Assay results reported in the Human Domainome abundance scans (Beltran et al. 2025).
± gives the uncertainty stated by the source.

B1: Homeobox protein cut-like 1, residues 941 to 1008; numbered along this chain, P39880 (parent)
chain: QEVDTIELTRQVKEKLAKNGICQRIFGEKVLGLSQGSVSDMLSRPKPWSKLTQKGREPFIRMQLWLNG

Variants of: B1
Test: abundance fitness (aPCA) (normalised: wild type 0, dead -1); higher = more abundant; growth selection in yeast, the domain comes from the species named
Conditions: Homo sapiens

| Variant | abundance fitness |
| --- | --- |
| I21R | -0.402 ± 0.044 |
| I21W | 0 ± 0.052 |
| I21K | -0.381 ± 0.09 |
| I21M | -0.1 ± 0.069 |
| I21E | -0.22 ± 0.09 |
| I21L | -0.08 ± 0.046 |
| G32V | -0.645 ± 0.076 |
| G32T | -0.29 ± 0.071 |
| G32E | -0.411 ± 0.11 |
| G32H | -0.096 ± 0.096 |
| G32C | -0.266 ± 0.076 |
| G32F | -0.313 ± 0.079 |
| G27V | -0.231 ± 0.047 |
| G27E | -0.131 ± 0.068 |
| G27H | -0.184 ± 0.14 |
| G27A | 0.1 ± 0.054 |
| G27W | -0.569 ± 0.099 |
| G27Q | -0.314 ± 0.087 |
| G27K | -0.137 ± 0.088 |
| G27L | -0.12 ± 0.056 |
| D4V | -0.581 ± 0.052 |
| D4N | -0.097 ± 0.067 |
| D4E | -0.093 ± 0.068 |
| D4P | -0.265 ± 0.062 |

| Variant | abundance fitness |
| --- | --- |
| R24C | -0.22 ± 0.074 |
| R24W | -0.144 ± 0.065 |
| R24M | -0.315 ± 0.097 |
| R24S | -0.136 ± 0.055 |
| R24G | -0.224 ± 0.07 |
| Q11L | -0.125 ± 0.046 |
| E28Y | -0.229 ± 0.11 |
| E28F | -0.195 ± 0.091 |
| E28C | -0.286 ± 0.11 |
| E28G | -0.072 ± 0.059 |
| E28T | -0.041 ± 0.067 |
| K13E | -0.208 ± 0.074 |
| K13T | -0.146 ± 0.063 |
| K13S | -0.35 ± 0.056 |
| K13V | -0.392 ± 0.046 |
| M62C | -0.226 ± 0.081 |
| M62G | -0.591 ± 0.066 |
| M62Y | -0.959 ± 0.13 |
| M62T | -0.274 ± 0.082 |
| M62S | -0.619 ± 0.068 |
| M62P | -0.93 ± 0.11 |
| M62A | -0.141 ± 0.065 |
| M62F | 0 ± 0.086 |
| T52G | -0.216 ± 0.056 |

| Variant | abundance fitness |
| --- | --- |
| T52Q | -0.22 ± 0.078 |
| T52Y | -0.143 ± 0.13 |
| G55C | -0.17 ± 0.091 |
| G55V | -0.01 ± 0.05 |
| G55W | -0.189 ± 0.069 |
| G55T | -0.162 ± 0.063 |
| G55R | -0.38 ± 0.062 |
| G55Q | 0.033 ± 0.067 |
| G55Y | -0.104 ± 0.1 |
| G55I | 0.093 ± 0.14 |
| G55K | -0.163 ± 0.078 |
| G55A | 0.016 ± 0.054 |
| L16V | -0.162 ± 0.062 |
| L16I | -0.198 ± 0.13 |
| L16F | -0.257 ± 0.095 |
| L16T | 0.023 ± 0.077 |
| L16G | -0.015 ± 0.076 |
| L16Q | -0.102 ± 0.074 |
| L16D | -0.189 ± 0.12 |
| I6R | -0.053 ± 0.045 |
| I6K | 0.089 ± 0.068 |
| I6V | -0.046 ± 0.061 |
| I6G | -0.049 ± 0.063 |
| I6N | -0.09 ± 0.1 |

| Variant | abundance fitness |
| --- | --- |
| I6Y | -0.129 ± 0.081 |
| E57W | -0.148 ± 0.081 |
| E57L | -0.194 ± 0.042 |
| E57T | -0.15 ± 0.07 |
| E57G | -0.126 ± 0.087 |
| S49Q | -0.169 ± 0.093 |
| S49E | -0.151 ± 0.083 |
| S49T | -0.131 ± 0.06 |
| S49M | -0.346 ± 0.069 |
| V38F | 0.048 ± 0.13 |
| V38Q | -0.273 ± 0.086 |
| V38D | -0.188 ± 0.088 |
| R61T | -0.131 ± 0.068 |
| R61G | -0.582 ± 0.089 |
| R61C | -0.277 ± 0.1 |
| V3C | -0.486 ± 0.17 |
| V3E | -0.037 ± 0.093 |
| V3N | -0.335 ± 0.1 |
| V3A | -0.133 ± 0.061 |
| L31R | -0.15 ± 0.052 |
| L31C | -0.255 ± 0.098 |
| L31K | -0.233 ± 0.065 |
| L31A | -0.273 ± 0.051 |
| L31M | -0.191 ± 0.068 |

| Variant | abundance fitness |
| --- | --- |
| L31I | -0.278 ± 0.078 |
| S37F | -0.014 ± 0.095 |
| S37T | -0.104 ± 0.075 |
| S37E | 0.052 ± 0.1 |
| S37R | -0.099 ± 0.05 |
| S37I | -0.076 ± 0.089 |
| T9S | -0.149 ± 0.053 |
| T9N | -0.348 ± 0.15 |
| T9R | -0.212 ± 0.049 |
| P47G | -0.123 ± 0.074 |
| P47A | -0.084 ± 0.081 |
| G20L | -0.277 ± 0.053 |
| G20K | 0.046 ± 0.091 |
| Q53K | 0.076 ± 0.092 |
| Q53Y | -0.27 ± 0.1 |
| K15F | -0.175 ± 0.11 |
| K15T | -0.196 ± 0.081 |
| K15C | -0.119 ± 0.095 |
| K15D | -0.586 ± 0.13 |
| L42I | -0.171 ± 0.091 |
| L42D | -0.393 ± 0.073 |
| L42Y | -0.481 ± 0.076 |
| L42Q | -0.376 ± 0.088 |
| L42K | -0.04 ± 0.077 |

| Variant | abundance fitness |
| --- | --- |
| L42V | -0.264 ± 0.046 |
| L42F | -0.158 ± 0.071 |
| P45K | -0.161 ± 0.089 |
| P45T | -0.224 ± 0.067 |
| P45L | -0.202 ± 0.048 |
| P45A | -0.233 ± 0.084 |
| P45F | -0.161 ± 0.073 |
| P45R | -0.184 ± 0.051 |
| G68R | -0.14 ± 0.066 |
| G68D | 0.013 ± 0.095 |
| G68A | -0.046 ± 0.085 |
| G68F | -0.265 ± 0.19 |
| G68P | -0.576 ± 0.14 |
| E7I | -0.565 ± 0.37 |
| L8G | 0.039 ± 0.081 |
| L8P | -0.007 ± 0.062 |
| L8S | -0.002 ± 0.051 |
| L8T | 0.003 ± 0.062 |
| L8Y | -0.089 ± 0.089 |
| L8V | 0.038 ± 0.064 |
| L8D | 0.076 ± 0.11 |
| L8F | -0.152 ± 0.067 |
| P58Y | -0.1 ± 0.083 |
| P58D | -0.13 ± 0.12 |

| Variant | abundance fitness |
| --- | --- |
| P58K | -0.04 ± 0.073 |
| P58F | 0.006 ± 0.079 |
| L51C | -0.439 ± 0.09 |
| L51V | -0.394 ± 0.059 |
| L51E | -0.929 ± 0.093 |
| L66G | -0.884 ± 0.09 |
| L66V | -0.223 ± 0.061 |
| L66M | -0.244 ± 0.073 |
| L66I | -0.166 ± 0.083 |
| L66S | -0.82 ± 0.072 |
| L66C | -0.499 ± 0.13 |
| L66T | -0.8 ± 0.075 |
| L66K | -0.63 ± 0.084 |
| S34E | -0.004 ± 0.072 |
| S34G | -0.132 ± 0.056 |
| S34F | 0.008 ± 0.091 |
| S34Q | -0.125 ± 0.096 |
| S34Y | -0.108 ± 0.078 |
| T5F | -0.235 ± 0.11 |
| T5Q | -0.086 ± 0.065 |
| T5I | -0.177 ± 0.11 |
| T5H | -0.145 ± 0.14 |
| T5K | -0.121 ± 0.066 |
